± gives the standard deviation of the averaged measurements.
B1: library; a variant is named by its letters at N, in order (parent)
chain: GCUGUCACCGGUGUAUUACCCUAGUGGUCGACCGGUCUGAUGAGUCUNNNNNNAGACGAAACAGC

Experiments:
hypoxanthine [1] = variants of: B1; assay: normalized RNA/DNA level with ligand (relative to sTRSVctl = 100) (log10 (% of sTRSVctl)); ligand: hypoxanthine (xanthine aptamer); higher = less ribozyme self-cleavage, higher mRNA level; settings: ligand concentration (+) RNA-Seq: 5 mM, HEK293T, reporter: mCherry (pCS4076), ligand present: yes
In short: (§1)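 Library plasmids encoding reporter-linked ribozyme switches (mCherry, or eGFP for some folinic acid experiments) were transfected into HEK293T at 4 µg per 6-well well. Ligand, when used, was added 1 h before transfection. Total RNA was extracted with EDTA 72 h later, then reverse-transcribed, amplified, barcoded and sequenced. RNA level was RNA reads over DNA reads, divided by a spiked-in non-cleaving control (or the top 25 sequences), ×100, log10; only sequences with ≥100 DNA reads were kept.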

hypoxanthine [2] = variants of: B1; assay: normalized RNA/DNA level without ligand (relative to sTRSVctl = 100) (log10 (% of sTRSVctl)); ligand: hypoxanthine (xanthine aptamer); higher = less ribozyme self-cleavage, higher mRNA level; settings: HEK293T, reporter: mCherry (pCS4076), ligand present: no
In short: as §1

Variant	normalized RNA/DNA level with ligand (log10) (hypoxanthine [1])	normalized RNA/DNA level without ligand (log10) (hypoxanthine [2])
CUUGCC	1.9562 ± 0.0012	1.884 ± 0.015
CUUGCG	1.937 ± 0.0067	1.853 ± 0.004
CUGGAC	1.97 ± 0.03	1.87 ± 0.03
CUGGAA	1.94 ± 0.033	1.771 ± 0.013
CUGGAG	1.86 ± 0.019	1.62 ± 0.037
CUGGAU	1.94 ± 0.051	1.75 ± 0.072
CUGUGA	1.976 ± 0.0082	1.82 ± 0.065
CUGUGU	1.95 ± 0.047	1.898 ± 0.0077
CUGUGC	1.907 ± 0.018	1.86 ± 0.043
GUUCAG	1.82 ± 0.054	1.55 ± 0.057
GUUCAU	1.908 ± 0.016	1.783 ± 0.012
GUUCAC	1.96 ± 0.05	1.85 ± 0.023
AUGCUU	1.93 ± 0.088	1.861 ± 0.018
AUGCUG	1.898 ± 0.0024	1.61 ± 0.048
AUGCUC	2.008 ± 0.011	1.976 ± 0.013
AUGCGC	1.93 ± 0.051	1.73 ± 0.031
AUGCGU	1.94 ± 0.025	1.819 ± 0.016
UUUACA	1.97 ± 0.04	1.912 ± 0.011
UUUACC	1.957 ± 0.011	1.867 ± 0.014
UUUACG	1.92 ± 0.035	1.76 ± 0.048
UUUACU	1.94 ± 0.024	1.876 ± 0.0032
UUGCCU	2.007 ± 0.018	1.99 ± 0.057
UUGCCA	1.95 ± 0.017	1.94 ± 0.028

Variant	normalized RNA/DNA level with ligand (log10) (hypoxanthine [1])	normalized RNA/DNA level without ligand (log10) (hypoxanthine [2])
UUGCCC	1.99 ± 0.025	1.997 ± 0.0042
AUUGCU	1.92 ± 0.048	1.88 ± 0.048
AUUGCA	1.9 ± 0.0078	1.8 ± 0.026
AUUGCC	1.95 ± 0.021	1.85 ± 0.021
UUGGCA	1.966 ± 0.0098	1.907 ± 0.018
UUGGCC	1.97 ± 0.066	2.013 ± 0.0026
UUGGCU	1.98 ± 0.042	1.988 ± 0.013
AUGGCU	1.89 ± 0.026	1.86 ± 0.031
AUGGCC	1.959 ± 0.015	1.883 ± 0.014
AUGGCA	1.92 ± 0.035	1.787 ± 0.017
GUUGCC	1.9665 ± 0.0019	1.9 ± 0.033
GUUGCU	1.97 ± 0.069	1.862 ± 0.0076
GUUGCG	1.87 ± 0.041	1.58 ± 0.072
GUGGCU	1.96 ± 0.042	1.881 ± 0.0077
GUGGCA	1.98 ± 0.02	1.83 ± 0.072
GUGGCC	1.98 ± 0.027	1.88 ± 0.023
CUUGAC	1.923 ± 0.019	1.812 ± 0.0094
CUUGAG	1.87 ± 0.03	1.72 ± 0.068
UUGCGA	1.994 ± 0.015	1.88 ± 0.027
UUGCGC	1.94 ± 0.027	1.91 ± 0.02
UUGCGU	1.97 ± 0.024	1.82 ± 0.067
UUGGUC	1.97 ± 0.034	2.006 ± 0.0099
UUGGUA	1.937 ± 0.0068	1.885 ± 0.0069

Variant	normalized RNA/DNA level with ligand (log10) (hypoxanthine [1])	normalized RNA/DNA level without ligand (log10) (hypoxanthine [2])
UUGGUU	1.99 ± 0.037	1.91 ± 0.025
UUGGUG	2.008 ± 0.0026	1.81 ± 0.054
GUUCCU	1.99 ± 0.012	1.98 ± 0.056
GUUCCA	1.963 ± 0.017	1.9 ± 0.029
GUUCCC	1.99 ± 0.021	1.92 ± 0.044
GUUCCG	1.94 ± 0.028	1.72 ± 0.048
CUGCUA	1.95 ± 0.052	1.77 ± 0.043
CUGCUC	1.96 ± 0.063	2.01 ± 0.0072
CUGCUU	1.962 ± 0.011	1.9272 ± 0.0008
CUGCUG	1.92 ± 0.094	1.815 ± 0.0021
AUUCCC	1.9 ± 0.031	1.87 ± 0.03
AUUCCA	1.92 ± 0.02	1.86 ± 0.042
GUUACA	1.92 ± 0.031	1.8382 ± 0.0018
AUGCAU	1.87 ± 0.032	1.76 ± 0.019
UUGUUA	1.983 ± 0.0091	2.01 ± 0.043
UUGUUU	2.039 ± 0.018	2.04 ± 0.042
UUGUUG	2.027 ± 0.012	1.9556 ± 0.0016
UUGUUC	2.012 ± 0.012	2.01 ± 0.032
AUGGUU	1.89 ± 0.034	1.763 ± 0.012
CUUAGU	1.936 ± 0.016	1.906 ± 0.0051
CUUAGC	1.944 ± 0.011	1.87 ± 0.018
CUUAGG	1.94 ± 0.075	1.84 ± 0.053
CUUAGA	1.984 ± 0.0081	1.852 ± 0.0069

Variant	normalized RNA/DNA level with ligand (log10) (hypoxanthine [1])	normalized RNA/DNA level without ligand (log10) (hypoxanthine [2])
GUGUAC	1.92 ± 0.045	1.69 ± 0.11
AUUCAC	1.953 ± 0.019	1.891 ± 0.0042
AUUCAG	1.87 ± 0.053	1.58 ± 0.025
AUUCAA	1.91 ± 0.047	1.82 ± 0.038
GUGUUA	1.912 ± 0.017	1.79 ± 0.047
GUGUUC	1.909 ± 0.0089	1.84 ± 0.044
GUGUUU	1.92 ± 0.041	1.87 ± 0.046
CUGUCU	2.03 ± 0.079	1.89 ± 0.077
CUGUCC	2.01 ± 0.024	1.92 ± 0.053
CUGUCG	1.98 ± 0.027	1.84 ± 0.032
AUUAUC	2.02 ± 0.021	1.97 ± 0.02
AUUAUG	1.891 ± 0.0046	1.48 ± 0.043
UUGGAU	2.004 ± 0.0096	1.8482 ± 4.2e-06
UUGGAC	1.95 ± 0.02	1.92 ± 0.043
UUGGAA	1.942 ± 0.0068	1.771 ± 0.0035
UUGGAG	1.95 ± 0.041	1.684 ± 0.0079
UUGUGC	2.02 ± 0.024	1.99 ± 0.047
UUGUGA	1.985 ± 0.003	1.8 ± 0.062
UUGUGU	1.97 ± 0.051	1.93 ± 0.043
GUGCGA	1.918 ± 0.0038	1.58 ± 0.018
GUGCGC	1.9 ± 0.023	1.74 ± 0.098
AUGUGC	1.853 ± 0.018	1.667 ± 0.0026
AUGGAU	1.912 ± 0.0082	1.6566 ± 0.0015

Variant	normalized RNA/DNA level with ligand (log10) (hypoxanthine [1])	normalized RNA/DNA level without ligand (log10) (hypoxanthine [2])
GUGGAC	1.889 ± 0.011	1.58 ± 0.068
GUGGAG	1.79 ± 0.028	1.28 ± 0.1
AUGGGC	1.94 ± 0.064	1.81 ± 0.022
AUGGGU	1.88 ± 0.066	1.534 ± 0.0046
AUGGGG	1.88 ± 0.08	1.4 ± 0.081
UUGGGC	2.05 ± 0.032	1.914 ± 0.012
UUGGGG	1.91 ± 0.047	1.82 ± 0.042
UUGGGU	2.014 ± 0.011	1.82 ± 0.053
UUGGGA	2.02 ± 0.07	1.71 ± 0.053
CUGCAU	1.94 ± 0.043	1.8 ± 0.074
GUGCCC	1.93 ± 0.027	1.82 ± 0.049
GUGCCA	1.93 ± 0.021	1.81 ± 0.035
GUGCCU	1.98 ± 0.042	1.891 ± 0.0069
CUUACU	1.96 ± 0.028	1.856 ± 0.0075
CUUACG	1.96 ± 0.025	1.87 ± 0.086
CUUACA	1.932 ± 0.011	1.83 ± 0.062
UUUGCC	1.92 ± 0.034	1.9514 ± 0.00098
UUUGCA	1.94 ± 0.039	1.89 ± 0.033
UUUGCG	1.91 ± 0.11	1.778 ± 0.0053
UUUGCU	1.95 ± 0.023	1.95 ± 0.022
GUGUCA	1.94 ± 0.052	1.77 ± 0.043
GUGUCC	1.97 ± 0.036	1.776 ± 0.0043
GUGUCU	1.95 ± 0.04	1.85 ± 0.019

— the supplement of paper PMC6757056
